Assay results published in US20240190983A1 (JULIUS MAXIMILIANS UNIVERSIT T W RZBURG, published 2024).

T1: Human TNFR2 (human, UniProt P20333 23-461)
T1 sequence: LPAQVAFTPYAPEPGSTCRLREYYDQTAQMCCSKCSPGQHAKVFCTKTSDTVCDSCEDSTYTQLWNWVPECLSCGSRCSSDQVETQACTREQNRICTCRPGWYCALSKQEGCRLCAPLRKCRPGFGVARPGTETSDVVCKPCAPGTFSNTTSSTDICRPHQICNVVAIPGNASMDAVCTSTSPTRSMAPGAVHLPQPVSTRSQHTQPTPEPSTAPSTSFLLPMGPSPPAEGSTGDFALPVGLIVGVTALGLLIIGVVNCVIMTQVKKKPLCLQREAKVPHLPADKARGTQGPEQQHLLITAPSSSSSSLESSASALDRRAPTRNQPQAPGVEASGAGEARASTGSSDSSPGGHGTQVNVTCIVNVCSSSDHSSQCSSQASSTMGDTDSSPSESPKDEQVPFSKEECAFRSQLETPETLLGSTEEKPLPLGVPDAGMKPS


These binders were tested against T1, Human TNFR2 (assay: cell-based or functional assay).

| Activity I (IL8) | Binder | Activity II (tox) |
| --- | --- | --- |
| 50 ng/mL | C4-Fab2-LC:scFvC4 (antibody) light: MNFGFSLIFLVLVLKGVQCEVKLVPRQLDYKDDDDKELDIVMTQSHKFMSTSVGDRVSITCKASQDVDTAVAWYQQKPGQSPKLLIYWASTRHTGVPDRFTGSGSGTDYTLTISSVQAEDLARYYCQQYYSVPPTFGGGTKLGSEIKRTVAAPSVFIFPPSDEQLKSGTASVVCLLNNFYPREAKVQWKVDNALQSGNSQESVTEQDSKDSTYSLSSTLTLSKADYEKHKVYACEVTHQGLSSPVTKSFNRGECLEQVQLLQSGPELVKPGASVKLSCKASGYSFTSYDINWVKQRPGQGLEWVGWIYPRDGDTKYNEKFKGKAILTVDTSSNTAYMNLHSLTSEDSAVYFCARLTGPYWYFDVWGTGTTVTVSSRSSTKGPKLEEGEFSEAQLDIVMTQSHKFMSTSVGDRVSITCKASQDVDTAVAWYQQKPGQSPKLLIYWASTRHTGVPDRFTGSGSGTDYTLTISSVQAEDLARYYCQQYYSVPPTFGGGTKLEIK heavy: MNFGFSLIFLVLVLKGVQCEVKLVPRQLQVQLLQSGPELVKPGASVKLSCKASGYSFTSYDINWVKQRPGQGLEWVGWIYPRDGDTKYNEKFKGKAILTVDTSSNTAYMNLHSLTSEDSAVYFCARLTGPYWYFDVWGTGTTVTVSSGSSSASTKGPSVFPLAPSSKSTSGGTAALGCLVKDYFPEPVTVSWNSGALTSGVHTFPAVLQSSGLYSLSSVVTVPSSSLGTQTYICNVNHKPSNTKVDKKVEPKSCDKTHTCPPCPA |  |
| 0 ng/mL | C4-Fab1 (Fab) light: MNFGFSLIFLVLVLKGVQCEVKLVPRQLDYKDDDDKELDIVMTQSHKFMSTSVGDRVSITCKASQDVDTAVAWYQQKPGQSPKLLIYWASTRHTGVPDRFTGSGSGTDYTLTISSVQAEDLARYYCQQYYSVPPTFGGGTKLGSEIKRTVAAPSVFIFPPSDEQLKSGTASVVCLLNNFYPREAKVQWKVDNALQSGNSQESVTEQDSKDSTYSLSSTLTLSKADYEKHKVYACEVTHQGLSSPVTKSFNRGEC heavy: MNFGFSLIFLVLVLKGVQCEVKLVPRQLDYKDDDDKELQVQLLQSGPELVKPGASVKLSCKASGYSFTSYDINWVKQRPGQGLEWVGWIYPRDGDTKYNEKFKGKAILTVDTSSNTAYMNLHSLTSEDSAVYFCARLTGPYWYFDVWGTGTTVTVSSGSSSASTKGPSVFPLAPSSKSTSGGTAALGCLVKDYFPEPVTVSWNSGALTSGVHTFPAVLQSSGLYSLSSVVTVPSSSLGTQTYICNVNHKPSNTKVDKKVEPKSCDKTHT | 0 ng/mL |
| 100 ng/mL | C4-IgG1(N297A)-HC:TNC (antibody) light: MNFGFSLIFLVLVLKGVQCEVKLVPRQLDYKDDDDKELDIVMTQSHKFMSTSVGDRVSITCKASQDVDTAVAWYQQKPGQSPKLLIYWASTRHTGVPDRFTGSGSGTDYTLTISSVQAEDLARYYCQQYYSVPPTFGGGTKLGSEIKRTVAAPSVFIFPPSDEQLKSGTASVVCLLNNFYPREAKVQWKVDNALQSGNSQESVTEQDSKDSTYSLSSTLTLSKADYEKHKVYACEVTHQGLSSPVTKSFNRGEC heavy: not shown |  |
| 10 ng/mL | C4-Fab1-LC:scFvC4 (antibody) light: MNFGFSLIFLVLVLKGVQCEVKLVPRQLDYKDDDDKELDIVMTQSHKFMSTSVGDRVSITCKASQDVDTAVAWYQQKPGQSPKLLIYWASTRHTGVPDRFTGSGSGTDYTLTISSVQAEDLARYYCQQYYSVPPTFGGGTKLGSEIKRTVAAPSVFIFPPSDEQLKSGTASVVCLLNNFYPREAKVQWKVDNALQSGNSQESVTEQDSKDSTYSLSSTLTLSKADYEKHKVYACEVTHQGLSSPVTKSFNRGECLEQVQLLQSGPELVKPGASVKLSCKASGYSFTSYDINWVKQRPGQGLEWVGWIYPRDGDTKYNEKFKGKAILTVDTSSNTAYMNLHSLTSEDSAVYFCARLTGPYWYFDVWGTGTTVTVSSRSSTKGPKLEEGEFSEAQLDIVMTQSHKFMSTSVGDRVSITCKASQDVDTAVAWYQQKPGQSPKLLIYWASTRHTGVPDRFTGSGSGTDYTLTISSVQAEDLARYYCQQYYSVPPTFGGGTKLEIK heavy: MNFGFSLIFLVLVLKGVQCEVKLVPRQLDYKDDDDKELQVQLLQSGPELVKPGASVKLSCKASGYSFTSYDINWVKQRPGQGLEWVGWIYPRDGDTKYNEKFKGKAILTVDTSSNTAYMNLHSLTSEDSAVYFCARLTGPYWYFDVWGTGTTVTVSSGSSSASTKGPSVFPLAPSSKSTSGGTAALGCLVKDYFPEPVTVSWNSGALTSGVHTFPAVLQSSGLYSLSSVVTVPSSSLGTQTYICNVNHKPSNTKVDKKVEPKSCDKTHT | 20 ng/mL |
| 0 ng/mL | C4-IgG1(N297A) (antibody) light: MNFGFSLIFLVLVLKGVQCEVKLVPRQLDYKDDDDKELDIVMTQSHKFMSTSVGDRVSITCKASQDVDTAVAWYQQKPGQSPKLLIYWASTRHTGVPDRFTGSGSGTDYTLTISSVQAEDLARYYCQQYYSVPPTFGGGTKLGSEIKRTVAAPSVFIFPPSDEQLKSGTASVVCLLNNFYPREAKVQWKVDNALQSGNSQESVTEQDSKDSTYSLSSTLTLSKADYEKHKVYACEVTHQGLSSPVTKSFNRGEC heavy: not shown | 0 ng/mL |
| 0 ng/mL | C4-Fab2 (antibody) light: MNFGFSLIFLVLVLKGVQCEVKLVPRQLDYKDDDDKELDIVMTQSHKFMSTSVGDRVSITCKASQDVDTAVAWYQQKPGQSPKLLIYWASTRHTGVPDRFTGSGSGTDYTLTISSVQAEDLARYYCQQYYSVPPTFGGGTKLGSEIKRTVAAPSVFIFPPSDEQLKSGTASVVCLLNNFYPREAKVQWKVDNALQSGNSQESVTEQDSKDSTYSLSSTLTLSKADYEKHKVYACEVTHQGLSSPVTKSFNRGEC heavy: MNFGFSLIFLVLVLKGVQCEVKLVPRQLQVQLLQSGPELVKPGASVKLSCKASGYSFTSYDINWVKQRPGQGLEWVGWIYPRDGDTKYNEKFKGKAILTVDTSSNTAYMNLHSLTSEDSAVYFCARLTGPYWYFDVWGTGTTVTVSSGSSSASTKGPSVFPLAPSSKSTSGGTAALGCLVKDYFPEPVTVSWNSGALTSGVHTFPAVLQSSGLYSLSSVVTVPSSSLGTQTYICNVNHKPSNTKVDKKVEPKSCDKTHTCPPCPA | 0 ng/mL |
|  | C4(scFv)-IgG1(N297A) (antibody) light: MNFGFSLIFLVLVLKGVQCEVKLVPRQLDYKDDDDKEFQVQLLQSGPELVKPGASVKLSCKASGYSFTSYDINWVKQRPGQGLEWVGWIYPRDGDTKYNEKFKGKAILTVDTSSNTAYMNLHSLTSEDSAVYFCARLTGPYWYFDVWGTGTTVTVSSRSSTKGPKLEEGEFSEAQLDIVMTQSHKFMSTSVGDRVSITCKASQDVDTAVAWYQQKPGQSPKLLIYWASTRHTGVPDRFTGSGSGTDYTLTISSVQAEDLARYYCQQYYSVPPTFGGGTKLEIKGSEIKRTVAAPSVFIFPPSDEQLKSGTASVVCLLNNFYPREAKVQWKVDNALQSGNSQESVTEQDSKDSTYSLSSTLTLSKADYEKHKVYACEVTHQGLSSPVTKSFNRGEC heavy: not shown | 20 ng/mL |
|  | C4(scFv)-IgG1(N297A)-HC:TNC (antibody) light: MNFGFSLIFLVLVLKGVQCEVKLVPRQLDYKDDDDKEFQVQLLQSGPELVKPGASVKLSCKASGYSFTSYDINWVKQRPGQGLEWVGWIYPRDGDTKYNEKFKGKAILTVDTSSNTAYMNLHSLTSEDSAVYFCARLTGPYWYFDVWGTGTTVTVSSRSSTKGPKLEEGEFSEAQLDIVMTQSHKFMSTSVGDRVSITCKASQDVDTAVAWYQQKPGQSPKLLIYWASTRHTGVPDRFTGSGSGTDYTLTISSVQAEDLARYYCQQYYSVPPTFGGGTKLEIKGSEIKRTVAAPSVFIFPPSDEQLKSGTASVVCLLNNFYPREAKVQWKVDNALQSGNSQESVTEQDSKDSTYSLSSTLTLSKADYEKHKVYACEVTHQGLSSPVTKSFNRGEC heavy: not shown | 10 ng/mL |
